# From the Human Domainome abundance scans (Beltran et al. 2025)
# ± gives the uncertainty stated by the source.
# B1: Chromodomain-helicase-DNA-binding protein 4, residues 623 to 675; numbered along this chain, Q14839 (parent)
# chain: MIHRILNHSVDKKGHVHYLIKWRDLPYDQASWESEDVEIQDYDLFKQSYWNHR
# Variants of: B1
# Assay: abundance fitness (aPCA) (normalised: wild type 0, dead -1); higher = more abundant; growth selection in yeast, the domain comes from the species named
# Conditions: Homo sapiens
row,Variant,abundance fitness
1,D28W,-0.333 ± 0.18
2,D28V,-0.462 ± 0.09
3,D28H,-0.139 ± 0.15
4,D28K,-0.124 ± 0.12
5,D28Q,-0.354 ± 0.14
6,D28I,-0.664 ± 0.16
7,D28L,-0.55 ± 0.1
8,D28C,-0.025 ± 0.14
9,D28N,-0.028 ± 0.11
10,D28G,-0.179 ± 0.097
11,D28Y,-0.504 ± 0.14
12,D28A,0.116 ± 0.089
13,D28R,-0.169 ± 0.096
14,D28T,-0.098 ± 0.12
15,D28M,-0.685 ± 0.15
16,D28F,-0.553 ± 0.13
17,S31M,-1.01 ± 0.17
18,S31D,-0.854 ± 0.16
19,S31N,-0.604 ± 0.14
20,S31I,-0.702 ± 0.13
21,S31H,-0.916 ± 0.17
22,S31R,-0.656 ± 0.097
23,S31W,-0.767 ± 0.2
24,S31C,-0.551 ± 0.15

row,Variant,abundance fitness
1,S31Q,-0.646 ± 0.14
2,S31E,-0.784 ± 0.16
3,S31A,-0.817 ± 0.13
4,S31Y,-0.711 ± 0.13
5,S31G,-0.885 ± 0.14
6,S31V,-0.61 ± 0.11
7,S31T,0.067 ± 0.09
8,R23I,-0.161 ± 0.12
9,R23M,-0.265 ± 0.13
10,R23W,-0.183 ± 0.12
11,R23P,-0.835 ± 0.17
12,R23S,-0.236 ± 0.091
13,R23N,-0.5 ± 0.12
14,R23L,-0.219 ± 0.085
15,R23F,-0.349 ± 0.11
16,R23T,-0.189 ± 0.12
17,R23K,0.021 ± 0.14
18,R23Q,-0.12 ± 0.13
19,R23Y,-0.139 ± 0.12
20,R23H,-0.164 ± 0.15
21,R23G,-0.481 ± 0.14
22,A30R,-0.401 ± 0.16
23,A30E,-0.717 ± 0.41
24,A30H,-0.645 ± 0.28

row,Variant,abundance fitness
1,A30V,-0.541 ± 0.28
2,A30F,-0.586 ± 0.24
3,A30T,-0.653 ± 0.19
4,A30I,0.111 ± 0.27
5,A30C,-0.136 ± 0.29
6,A30N,-0.347 ± 0.25
7,A30W,-0.465 ± 0.31
8,A30Q,-0.866 ± 0.31
9,A30L,-0.813 ± 0.2
10,A30S,-0.325 ± 0.16
11,A30G,-0.977 ± 0.44
12,A30P,-0.356 ± 0.15
13,Q29F,-0.657 ± 0.14
14,Q29G,-0.608 ± 0.12
15,Q29H,-0.268 ± 0.17
16,Q29R,-0.118 ± 0.086
17,Q29D,-0.345 ± 0.16
18,Q29M,-0.4 ± 0.15
19,Q29W,-0.589 ± 0.14
20,Q29T,-0.702 ± 0.13
21,Q29S,-0.27 ± 0.089
22,Q29N,-0.48 ± 0.16
23,Q29C,-0.186 ± 0.12
24,Q29L,-0.239 ± 0.081

row,Variant,abundance fitness
1,Q29K,0.101 ± 0.14
2,Q29I,-1.17 ± 0.27
3,Q29E,-0.262 ± 0.15
4,Q29P,-0.802 ± 0.14
5,Q29Y,-0.493 ± 0.19
6,Q29A,-0.105 ± 0.11
7,P26N,-0.201 ± 0.15
8,P26K,-0.59 ± 0.14
9,P26E,-0.562 ± 0.14
10,P26G,-0.019 ± 0.099
11,P26I,-0.907 ± 0.27
12,P26T,-0.392 ± 0.15
13,P26F,-0.749 ± 0.48
14,P26M,-0.761 ± 0.19
15,P26A,-0.751 ± 0.17
16,P26V,-0.762 ± 0.14
17,P26W,-0.662 ± 0.15
18,P26L,-0.62 ± 0.11
19,P26Y,-0.339 ± 0.22
20,P26D,-0.163 ± 0.17
21,P26R,-0.533 ± 0.094
22,P26S,-0.19 ± 0.1
23,P26Q,-0.602 ± 0.19
24,P26H,-0.274 ± 0.25

row,Variant,abundance fitness
1,P26C,-0.701 ± 0.22
2,D24M,-0.552 ± 0.13
3,D24Y,-0.53 ± 0.12
4,D24N,-0.077 ± 0.1
5,D24T,-0.309 ± 0.1
6,D24A,-0.335 ± 0.12
7,D24S,-0.294 ± 0.09
8,D24I,-0.725 ± 0.16
9,D24F,-0.423 ± 0.14
10,D24H,-0.142 ± 0.16
11,D24L,-0.535 ± 0.095
12,D24Q,-0.439 ± 0.14
13,D24V,-0.558 ± 0.1
14,D24K,-0.461 ± 0.14
15,D24R,-0.487 ± 0.094
16,D24E,-0.014 ± 0.097
17,D24C,-0.588 ± 0.13
18,D24G,-0.115 ± 0.086
19,D24W,-0.353 ± 0.13
20,L25H,-0.195 ± 0.13
21,L25P,-0.398 ± 0.12
22,L25R,0.059 ± 0.09
23,L25F,-0.254 ± 0.12
24,L25I,-0.344 ± 0.12

row,Variant,abundance fitness
1,L25S,-0.125 ± 0.085
2,L25T,-0.013 ± 0.096
3,L25M,0.096 ± 0.12
4,L25K,0.206 ± 0.11
5,L25V,-0.249 ± 0.085
6,L25Q,-0.045 ± 0.12
7,L25A,-0.256 ± 0.1
8,L25Y,-0.325 ± 0.12
9,L25E,-0.363 ± 0.12
10,L25N,-0.143 ± 0.11
11,W32H,-0.788 ± 0.15
12,W32K,-1.01 ± 0.19
13,W32P,-0.755 ± 0.12
14,W32Q,-0.75 ± 0.15
15,W32M,-0.827 ± 0.18
16,W32L,-0.732 ± 0.11
17,W32S,-0.933 ± 0.12
18,W32N,-0.776 ± 0.14
19,W32I,-0.71 ± 0.14
20,W32F,-0.93 ± 0.18
21,W32E,-0.737 ± 0.17
22,W32V,-0.732 ± 0.11
23,W32A,-0.997 ± 0.15
24,W32D,-0.812 ± 0.18

row,Variant,abundance fitness
1,W32C,-0.783 ± 0.12
2,W32G,-0.88 ± 0.11
3,W32T,-0.955 ± 0.14
4,W32R,-0.724 ± 0.087
5,W32Y,-0.909 ± 0.17
6,Y27Q,0.197 ± 0.14
7,Y27L,0.156 ± 0.075
8,Y27C,-0.171 ± 0.13
9,Y27H,0.068 ± 0.089
10,Y27F,-0.118 ± 0.085
11,Y27I,0.21 ± 0.089
12,Y27V,0.097 ± 0.11
13,Y27A,-0.003 ± 0.11
14,Y27E,-0.241 ± 0.19
15,Y27T,0.077 ± 0.086
16,Y27R,0.04 ± 0.089
17,Y27P,0.018 ± 0.092
18,Y27G,-0.201 ± 0.16
19,Y27M,-0.248 ± 0.13
20,Y27K,-0.013 ± 0.14
21,Y27N,0.042 ± 0.11
22,Y27D,0.133 ± 0.11
23,Y27W,-0.18 ± 0.26
